Measured values reported in patent publication US20250027945A1 (University of California, published 2025).

Assays:
[1] = target: T1, human RYK on the surface of human tumor cell lines (human, UniProt P34925 46-607); test: flow cytometry, H292 cells (lung), 5 ug/ml 2-D11-Alexa647; line unmarked (no staining)
T1 construct: whole, on cells; Endogenous expression
Protocol: (§1) Table 1 provides the flow cytometry data on various cancer cell lines stained with fluorochrome-conjugated 2-D11, as depicted in FIG. 8. The name of each cell line is listed in the first column and the tissue of origin is listed in the second column. Binding of the 2-D11 mAb to human RYK was assessed by flow cytometric staining and analysis by staining on ice for 20 minutes with 5 μg/ml of 2-D11 anti-human RYK-Alexa647 conjugated mAb or equal amounts of isotype matched control mAb, washed, and analyzed. The median fluorescence intensity (MFI) of 2-D11 stained cells is listed in the middle column and the MFI of isotype control stained cells are listed in the in the adjacent column. Cell lines were scored as “++”, “+”, or neg (unmarked with “+”) lines based on the ratio of median fluorescence intensity (MFI) of stained cells relative to the MFI of isotype control stained cells (MFIR).
(§2) The name of each cell line is listed in the first column and the tissue of origin is listed in the second column. Binding of the 2-D11 mAb to human RYK was assessed by flow cytometric staining and analysis by staining on ice for 20 minutes with 5 μg/ml of 2-D11 anti-human RYK-Alexa647 conjugated mAb or equal amounts of isotype matched control mAb, washed and analyzed. […]

[2] = target: T1, human RYK on the surface of human tumor …; test: flow cytometry, SH-SY5Y cells (brain), 5 ug/ml 2-D11-Alexa647
Protocol: as §1, §2

[3] = target: T1, human RYK on the surface of human tumor …; test: flow cytometry, NCI H929 cells (melanoma as printed), 5 ug/ml 2-D11-Alexa647; line unmarked (no staining)
Protocol: as §1, §2

[4] = target: T1, human RYK on the surface of human tumor …; test: flow cytometry, RAMOS cells (Burkitt NHL), 5 ug/ml 2-D11-Alexa647; line unmarked (no staining)
Protocol: as §1, §2

[5] = target: T2, recombinant extracellular protein of mouse RYK (mouse, UniProt Q01887 35-211); test: immunoblot of recombinant extracellular protein on nylon membrane
T2 construct: also called mRYK; not shown: rabbit IgG tag for purification
Protocol: FIG. 4A illustrates experiments in which binding of 2-D11, 7-H10, 3-C12, 11-E9, 6-B5, 6-D10 and sheep anti-RYK mAb was assessed using recombinant human RYK proteins (SEQ ID NO:129) in which one amino acid that differs between human and mouse RYK within the extracellular domain was replaced with the corresponding amino acid of mouse RYK. Each recombinant protein was transferred onto nylon membrane, probed with the indicated anti-RYK mAb or Sheep anti-RYK Ab, and detected with an anti-mouse IgG or donkey-anti-sheep antibody conjugated with horse radish peroxidase. […]
The anti-human RYK mAbs, 2-D11 and 7-H10, appear specific for an amino terminal epitope of human Ryk (residues 46-57) that are distinct from those in mouse Ryk (FIG. 3); these mAbs also bind mutant forms of Ryk containing amino acid substitutions in human Ryk at positions that differ from that of the highly homologous mouse Ryk to assimilate mouse Ryk at the site of substitution, with amino acid sequence shown in FIG. 3, as shown by immunoblot analyses of recombinant extracellular proteins of human or mouse or each of the various mutant forms of human Ryk (FIG. 4) For this, the binding of 2-D11, 7-H10, or Sheep anti-RYK mAb was assessed using recombinant extracellular RYK proteins as specified in the Key. […]

[6] = target: T1, human RYK on the surface of human tumor …; test: flow cytometry, MCF7 cells (breast), 5 ug/ml 2-D11-Alexa647; line unmarked (no staining)
Protocol: as §1, §2

[7] = target: T1, human RYK on the surface of human tumor …; test: flow cytometry, SK-OV-3 cells (ovarian), 5 ug/ml 2-D11-Alexa647; line unmarked (no staining)
Protocol: as §1, §2

[8] = target: T1, human RYK on the surface of human tumor …; test: flow cytometry, NCI H226 cells (lung), 5 ug/ml 2-D11-Alexa647
Protocol: as §1, §2

[9] = target: T1, human RYK on the surface of human tumor …; test: flow cytometry, COLO 829 cells (melanoma), 5 ug/ml 2-D11-Alexa647
Protocol: as §1, §2

[10] = target: T1, human RYK on the surface of human tumor …; test: flow cytometry, HT29 cells (colon), 5 ug/ml 2-D11-Alexa647
Protocol: as §1, §2

[11] = target: T1, human RYK on the surface of human tumor …; test: flow cytometry, RAJI cells (Burkitt NHL), 5 ug/ml 2-D11-Alexa647; line unmarked (no staining)
Protocol: as §1, §2

[12] = target: T1, human RYK on the surface of human tumor …; test: flow cytometry, MOLT4 cells (T-cell ALL), 5 ug/ml 2-D11-Alexa647; line unmarked (no staining)
Protocol: as §1, §2

[13] = target: T1, human RYK on the surface of human tumor …; test: flow cytometry, NCI H1155 cells (lung), 5 ug/ml 2-D11-Alexa647; line unmarked (no staining)
Protocol: as §1, §2

T1 sequence (P34925 46-607 limits assumed, form in doubt): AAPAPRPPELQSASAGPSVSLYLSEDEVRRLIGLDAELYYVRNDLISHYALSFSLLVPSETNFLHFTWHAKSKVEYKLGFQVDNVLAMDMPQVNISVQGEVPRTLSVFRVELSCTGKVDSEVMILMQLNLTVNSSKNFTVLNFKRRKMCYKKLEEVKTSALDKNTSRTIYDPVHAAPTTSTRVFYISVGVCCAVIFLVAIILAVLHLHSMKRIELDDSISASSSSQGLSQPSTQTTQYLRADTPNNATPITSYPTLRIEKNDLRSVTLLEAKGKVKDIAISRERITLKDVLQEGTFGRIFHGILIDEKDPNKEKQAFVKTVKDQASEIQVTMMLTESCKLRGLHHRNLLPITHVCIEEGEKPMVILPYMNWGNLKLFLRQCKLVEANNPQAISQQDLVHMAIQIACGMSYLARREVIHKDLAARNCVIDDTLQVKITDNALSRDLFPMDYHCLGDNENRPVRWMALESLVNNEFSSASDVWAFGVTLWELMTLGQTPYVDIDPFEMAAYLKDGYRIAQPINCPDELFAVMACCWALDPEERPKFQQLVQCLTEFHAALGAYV
T2 sequence (Q01887 35-211): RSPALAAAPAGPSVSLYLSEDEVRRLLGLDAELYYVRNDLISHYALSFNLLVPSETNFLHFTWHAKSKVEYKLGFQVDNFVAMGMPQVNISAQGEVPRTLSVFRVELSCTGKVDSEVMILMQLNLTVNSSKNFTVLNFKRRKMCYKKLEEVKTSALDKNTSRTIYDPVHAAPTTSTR

MFIR (MFI ratio to isotype control) [1]: 1.3
MFIR (MFI ratio to isotype control) [2]: 2
MFIR (MFI ratio to isotype control) [3]: 1.2
MFIR (MFI ratio to isotype control) [4]: 1.1
binding result [5]: no binding
MFIR (MFI ratio to isotype control) [6]: 1.4
MFIR (MFI ratio to isotype control) [7]: 1.1
MFIR (MFI ratio to isotype control) [8]: 2
MFIR (MFI ratio to isotype control) [9]: 2.3
MFIR (MFI ratio to isotype control) [10]: 2.2
MFIR (MFI ratio to isotype control) [11]: 1
MFIR (MFI ratio to isotype control) [12]: 0.9
MFIR (MFI ratio to isotype control) [13]: 1.3
B1: 2-D11 anti-human RYK mAb (antibody, V domains shown)
VH: QVQLKESGPGLVAPSQSLSITCSVSGFSLNDYGVNWVRQPPGKDLEWLGMIWGDGVTEYNSTLKSRLSISKDNSKSQVFLKMNNLQTEDTARYYCVRQGSGVWFAHWGQGTLVSVSS
VL: DVLVTQTPLSLPVSLGDQASISCRSSQTIVHSNGNTYLEWYLQKPGQSPKLLIYKVSNRFSGVPDRFSGSGSGTDFTLKISRVEAEDLGIYYCFQGSHVPYTFGGGTKLEIK
notes: Mouse hybridoma mAb, kappa light chain, detected with anti-mouse IgG; also called mAb 2-D11; 2-D11 anti-human RYK-Alexa647 conjugated mAb
